Source: patent US20260209386A1 (MYTHIC THERAPEUTICS, published 2026)
Changes are numbered by the printed parent chain.

T1: Human PTK7/CCK4 Protein, His Tag, Acro Biosystems PT7-H52H3 (human, UniProt Q13308 31-704)
T1 construct: bought protein; also called Human PTK7 Protein, His Tag, Acro Biosystems; not shown: His tag
T1 sequence: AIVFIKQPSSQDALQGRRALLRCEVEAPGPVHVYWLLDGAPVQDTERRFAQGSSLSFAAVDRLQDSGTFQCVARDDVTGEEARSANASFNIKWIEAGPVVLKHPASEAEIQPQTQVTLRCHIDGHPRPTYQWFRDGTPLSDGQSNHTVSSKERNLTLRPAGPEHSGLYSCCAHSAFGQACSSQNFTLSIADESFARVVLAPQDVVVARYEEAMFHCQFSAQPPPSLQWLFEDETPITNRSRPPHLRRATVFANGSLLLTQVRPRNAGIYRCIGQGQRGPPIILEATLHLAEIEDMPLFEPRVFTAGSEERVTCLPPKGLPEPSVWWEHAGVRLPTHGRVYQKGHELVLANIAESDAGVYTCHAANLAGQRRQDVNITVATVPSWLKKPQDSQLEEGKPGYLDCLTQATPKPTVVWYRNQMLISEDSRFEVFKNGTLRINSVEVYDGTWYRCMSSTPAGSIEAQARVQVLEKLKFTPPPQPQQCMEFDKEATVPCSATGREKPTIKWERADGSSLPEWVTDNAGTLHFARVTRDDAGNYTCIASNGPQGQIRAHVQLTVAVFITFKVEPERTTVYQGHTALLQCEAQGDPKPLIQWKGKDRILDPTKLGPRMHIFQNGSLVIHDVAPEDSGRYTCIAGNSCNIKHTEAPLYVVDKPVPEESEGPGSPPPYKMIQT

B1: MYT11093 (antibody, V domains shown)
VH: EVQLVESGGGLVQPGGSLRLSCTASGLSLSSYWMSWVRQAPGKGLEWVGVISAGGNTYYANWAKGRFTISRDTSKNTVYLQMNSLRAEDTAVYFCARGDDGYTNAAYVSNLWGQGTLVTVSS
VL: EIVMTQSPSTLSASVGDRVIITCQASQSISSWLSWYQQKPGKAPKLLIYKASTLASGVPSRFSGSGSGAEFTLTISSLQPDDFATYYCQSYHDSTTIAFGQGTKLTVL
notes: IgG
B2: MYT10939 (antibody, V domains shown)
VH: EVQLVESGGGLVQPGGSLRLSCTASGFSLSNYVMNWVRQAPGKGLEWVGIIDSSGSTYYASWAKGRFTISRDTSKNTVYLQMNSLRAEDTAVYFCARGLYLWGQGTLVTVSS
VL: EIVMTQSPSTLSASVGDRVIITCQSSQSVYNNNLLAWYQQKPGKAPKLLIYYTSNLASGVPSRFSGSGSGAEFTLTISSLQPDDFATYYCHGGYNGNIYAFGQGTKLTVL
notes: IgG
B3: MYT10949 (antibody, V domains shown)
VH: B2 VH
VL: B2 VL with H91Q, T108E, V109I, L110K
notes: IgG
B4: MYT10943 (antibody, V domains shown)
VH: B2 VH
VL: B2 VL with H91Q, N95H
notes: IgG
B5: MYT10946 (antibody, V domains shown)
VH: B2 VH
VL: B2 VL with H91Q, I98H
notes: IgG
B6: MYT10942 (antibody, V domains shown)
VH: B2 VH
VL: B2 VL with H91Q, Y94H
notes: IgG
B7: MYT10944 (antibody, V domains shown)
VH: B2 VH
VL: B2 VL with H91Q, G96H
notes: IgG
B8: MYT11103 (antibody, V domains shown)
VH: EVQLVESGGGLVQPGGSLRLSCTASGHSLSTYAMSWVRQAPGKGLEWVGMIYINDNTYYASWAKGRFTISRDTSKNTVYLQMNSLRAEDTAVYFCARDIGISYYIGVSLWGQGTLVTVSS
VL: EIVMTQSPSTLSASVGDRVIITCQASQSIGTRLSWYQQKPGKAPKLLIYGASKLATGVPSRFSGSGSGAEFTLTISSLQPDDFATYYCLGEYSYTTTDGIAFGQGTKLTVL
notes: IgG
B9: MYT11106 (antibody, V domains shown)
VH: B8 VH with H27F, S30H
VL: B8 VL
notes: IgG
B10: MYT11107 (antibody, V domains shown)
VH: B8 VH with H27F, T31H
VL: B8 VL
notes: IgG
B11: MYT11105 (antibody, V domains shown)
VH: B8 VH with H27F, L29H
VL: B8 VL
notes: IgG
B12: MYT10951 (antibody, V domains shown)
VH: EVQLVESGGGLVQPGGSLRLSCTASHFSLSSYAMGWVRQAPGKGLEWVGFINAGGNTYYANWAKGRFTISRDTSKNTVYLQMNSLRAEDTAVYFCARRYSRASGWYDLWGQGTLVTVSS
VL: EIVMTQSPSTLSASVGDRVIITCQASQSISSYLAWYQQKPGKAPKLLIYAASTLASGVPSRFSGSGSGAEFTLTISSLQPDDFATYYCQSYSYSSGIDYGDVFGQGTKLTVL
notes: IgG
B13: MYT11023 (antibody, V domains shown)
VH: B12 VH with H26G
VL: B12 VL with V102H
notes: IgG
B14: MYT11012 (antibody, V domains shown)
VH: B12 VH with H26G
VL: B12 VL with Y91H
notes: IgG
B15: MYT10974 (antibody, V domains shown)
VH: B12 VH with H26G, A63H
VL: B12 VL
notes: IgG
B16: MYT10969 (antibody, V domains shown)
VH: B12 VH with H26G, Y58H
VL: B12 VL
notes: IgG
B17: MYT11014 (antibody, V domains shown)
VH: B12 VH with H26G
VL: B12 VL with Y93H
notes: IgG
B18: MYT10966 (antibody, V domains shown)
VH: B12 VH with H26G, G55H
VL: B12 VL
notes: IgG
B19: MYT11003 (antibody, V domains shown)
VH: B12 VH with H26G
VL: B12 VL with A50H
notes: IgG
B20: MYT10978 (antibody, V domains shown)
VH: B12 VH with H26G, R97H
VL: B12 VL
notes: IgG
B21: MYT10998 (antibody, V domains shown)
VH: B12 VH with H26G
VL: B12 VL with S30H
notes: IgG
B22: MYT11000 (antibody, V domains shown)
VH: B12 VH with H26G
VL: B12 VL with Y32H
notes: IgG
B23: MYT10993 (antibody, V domains shown)
VH: B12 VH with H26G
VL: B12 VL with A25H
notes: IgG
B24: MYT11001 (antibody, V domains shown)
VH: B12 VH with H26G
VL: B12 VL with L33H
notes: IgG
B25: MYT10959 (antibody, V domains shown)
VH: B12 VH with H26G, M34H
VL: B12 VL
notes: IgG
B26: MYT10997 (antibody, V domains shown)
VH: B12 VH with H26G
VL: B12 VL with I29H
notes: IgG
B27: MYT11010 (antibody, V domains shown)
VH: B12 VH with H26G
VL: B12 VL with Q89H
notes: IgG
B28: MYT10963 (antibody, V domains shown)
VH: B12 VH with H26G, N52H
VL: B12 VL
notes: IgG
B29: MYT10999 (antibody, V domains shown)
VH: B12 VH with H26G
VL: B12 VL with S31H
notes: IgG
B30: MYT10962 (antibody, V domains shown)
VH: B12 VH with H26G, I51H
VL: B12 VL
notes: IgG
B31: MYT10957 (antibody, V domains shown)
VH: B12 VH with H26G, Y32H
VL: B12 VL
notes: IgG
B32: MYT10980 (antibody, V domains shown)
VH: B12 VH with H26G, Y99H
VL: B12 VL
notes: IgG
B33: MYT11013 (antibody, V domains shown)
VH: B12 VH with H26G
VL: B12 VL with S92H
notes: IgG
B34: MYT10970 (antibody, V domains shown)
VH: B12 VH with H26G, Y59H
VL: B12 VL
notes: IgG
B35: MYT11004 (antibody, V domains shown)
VH: B12 VH with H26G
VL: B12 VL with A51H
notes: IgG
B36: MYT11006 (antibody, V domains shown)
VH: B12 VH with H26G
VL: B12 VL with T53H
notes: IgG
B37: MYT11021 (antibody, V domains shown)
VH: B12 VH with H26G
VL: B12 VL with G100H
notes: IgG
B38: MYT11018 (antibody, V domains shown)
VH: B12 VH with H26G
VL: B12 VL with I97H
notes: IgG

target: T1, Human PTK7/CCK4 Protein, His Tag, Acro …; assay: BLI, antibody on anti-human Fc sensor, 50 nM PTK7

Binder	binding result
B1	binds
B2	binds
B3	binds
B4	binds
B5	binds
B6	binds
B7	binds
B8	binds
B9	binds
B10	binds
B11	binds
B12	binds
B13	binds
B14	binds
B15	binds
B16	binds
B17	binds
B18	binds
B19	binds

Binder	binding result
B20	binds
B21	binds
B22	binds
B23	binds
B24	binds
B25	binds
B26	binds
B27	binds
B28	binds
B29	binds
B30	binds
B31	binds
B32	binds
B33	binds
B34	binds
B35	binds
B36	binds
B37	binds
B38	binds
